Experimental data reported in patent US20260166154A1, “METHODS FOR TREATING OBESITY” (AMGEN INC., priority 2022, published 2026).

Key:
[1] = Phase 1 SAD/MAD clinical study: safety and tolerability (TEAEs, vital signs)
Description: This was a first-in-human, double-blind, randomized, placebo-controlled study comprised of two parts: single ascending dose (SAD) and multiple ascending dose (MAD) in participants with obesity.
Participants were randomly assigned to receive AMG133 or placebo in a ratio of 3:1. […] The MAD evaluated 3 doses given every 4 weeks on Days 1, 29 and 57. […] Enrollment into the SAD and MAD cohorts was sequential. Subsequent cohorts were dosed after the dosing regimen in the preceding cohort had been recommended by the Dose Level Review Team (DLRT) to be safe and well tolerated based on the safety and laboratory data through at least day 15. […] Placebo was provided as normal saline, the volume matching the investigational drug at each dose level.
The primary endpoints were the participant incidence of treatment-emergent adverse events, changes in laboratory safety tests, vital signs, and 12-lead electrocardiograms. […] The exploratory endpoints were pharmacodynamic parameters including, but not limited to, concentrations of fasting glucose, insulin, c-peptide, glucagon,, hemoglobin A1c, changes in body weight, waist circumference, and BMI.
The sample size for this trial was not based on any statistical inferences. As the trial was an exploratory first-in-human study with a small sample size, all pharmacokinetic, pharmacodynamic and safety parameters were analyzed descriptively. Participants who withdrew from the study prior to day 15 in the SAD or day 36 in the MAD were replaced so that the target numbers of participants for safety review and data collection would be achieved; replacement participants were assigned to receive the same treatment as the withdrawn participant. […] The safety analysis set was the same as the full analysis set. […] No missing data was imputed.

[2] = Phase 1 SAD/MAD clinical study: body weight, BMI, waist circumference; format: in vivo, human; conditions: for decrease in body weight: MAD 420 mg Q4W
Description: Eligible participants were women of non-reproductive potential and men aged 18 to 65 years with a body mass index (BMI) between 30.0 kg/m2 and 40.0 kg/m2 and HbA1c≤6.5% and/or a fasting glucose of […]125 mg/dl. Participants had normal vital signs, 12-lead electrocardiogram results and clinical laboratory tests at the time of randomization.
(§1) Enrollment into the SAD and MAD cohorts was sequential.
(§2) No missing data was imputed.

[3] = Predicted exposure multiples based on NOAEL established in mice; parameters: species or system mouse; conditions: NOAEL 150 mg/kg in mice
Excerpt: (§3) The rationale for dose selection for Part C is based on the available PK data from this ongoing FIH study cohorts 1 to 11 (Part A and Part B) and the NOAEL exposures established based on 13-week GLP repeat-dose studies in mouse and cynomolgus monkeys.

[4] = Phase 1 MAD cohorts: pharmacodynamic markers (fasting glucose, glucagon, HbA1c, hs-CRP); format: in vivo, human; conditions: for hs-CRP reduction: day 127
Excerpt: as §1, §2

[5] = Predicted exposure multiples based on NOAEL established in cynomolgus monkeys; parameters: species or system cynomolgus monkey; conditions: NOAEL 120 mg/kg in cynomolgus monkeys
Excerpt: as §3

[6] = Phase 1 SAD/MAD clinical study (NCT04478708): pharmacokinetics; format: in vivo, human
Excerpt: as §1, §2

[7] = Intact AMG 133, cohort 12, 420 mg SC
[8] = Intact AMG 133, cohort 13, 420 mg SC
[9] = Total AMG 133, cohort 12, 420 mg SC
[10] = Total AMG 133, cohort 13, 420 mg SC

For maridebart cafraglutide [AMG 133], the heart rate ([1]; MAD cohorts) was “the 280 mg cohort had higher heart rates than the 140 mg or 420 mg cohort”, the nausea and vomiting ([1]; MAD cohorts) was “all participants who received AMG 133 experienced mild nausea and vomiting” and the “subjects reporting mild GI-related adverse events (mainly nausea, vomiting, diarrhea)” value ([1]; MAD cohorts 7 to 10, after the first dose) was “Approximately 90%”. The “subjects experiencing GI-related adverse events” value ([1]; MAD cohorts 7 to 10, after the second dose) was “less than 5%”, the “serious adverse events or deaths” value ([1]; MAD cohorts 7 to 10, any dose) was “no serious adverse events or deaths reported after any of the doses” and the “subjects who discontinued the study prior to receiving the second dose” value ([1]; MAD trial) was “Approximately 26%”. The “serious TEAEs, TEAEs leading to permanent discontinuation, severe TEAEs” value ([1]; SAD and MAD) was “No serious TEAEs, TEAEs leading to permanent discontinuation, or severe TEAEs were reported”, the tolerability ([1]; SAD and MAD participants) was “tolerated AMG 133 well” and the dyspepsia ([1]; SAD cohorts) was “more frequently reported with lower doses (70 mg and 140 mg)”. For the same substance, the heart rate ([1]; SAD cohorts) was “increased with a single dose of 280, 560 or 840 mg AMG 133 but not in a dose-dependent manner”, the nausea and vomiting ([1]; SAD cohorts) was “reported in participants treated with ≥70 mg AMG 133” and the “severity of GI-related TEAEs” value ([1]; SAD cohorts) was “all GI-related TEAEs were mild except one participant in the 140 mg cohort had moderate GI symptoms”. For the same substance, the “serious adverse events or deaths” value ([1]; SAD cohorts 1 to 6 and 11) was “no serious adverse events or deaths have been reported”, the “subjects who withdrew consent due to GI-related adverse events” value ([1]; cohort 9, after 420 mg dose on day 1) was 50% and the blood pressure ([1]; single dose or multiple doses) was “No meaningful changes in blood pressure”. The “maximal reduction of body weight from baseline” value ([2]; MAD 140 mg Q4W, after 3 doses, day 78) was 7.44%, the “reduction of body weight from baseline” value ([2]; MAD 140 mg Q4W, post-dose day 7) was 1.97% and the waist circumference ([2]; MAD 140 mg and 420 mg) was “dose-dependent decrease”. For the same substance, the waist circumference ([2]; MAD 280 mg) was “fluctuations in waist circumference changes”, the “decrease in body weight” value ([2]; day 7) was −4.86% and the “decrease in body weight” value ([2]; day 85) was −14.5%. The “duration of body weight reduction” value ([2]; MAD cohorts, multiple doses) was “maintained until end of study day 207”, the “change from baseline in BMI” value ([2]; SAD and MAD) was “followed a similar pattern as the change in body weight” and the “duration of body weight decrease” value ([2]; all SADs except lowest dose 21 mg) was “maintained until day 150”. For the same substance, the “change in mean body weight from baseline” value ([2]; all dose levels (SADs and MADs)) was “decreases in mean body weight from baseline”, the “maximal decrease of body weight from baseline” value ([2]; single dose 21 mg, day 29) was 2.39% and the “mean percent change of body weight from baseline” value ([2]; single dose 21 mg, post-dose day 6) was −1.59%. For the same substance, the “mean percent change of body weight from baseline” value ([2]; single dose 840 mg, day 6) was −2.85%, the “maximal decrease of body weight from baseline” value ([2]; single dose 840 mg, day 92) was 8.24% and the “Predicted Exposure Multiples Mouse AUC” value [3, 7] was roughly 42.4 fold. For the same substance, the “Predicted Exposure Multiples Mouse Cmax” value [3, 7] was roughly 43 fold, the “Predicted Exposure Multiples Mouse AUC” value [3, 8] was roughly 40.6 fold and the “Predicted Exposure Multiples Mouse Cmax” value [3, 8] was roughly 41.3 fold. For the same substance, the “Predicted Exposure Multiples Mouse AUC” value [3, 9] was 51 fold, the “Predicted Exposure Multiples Mouse Cmax” value [3, 9] was 54.3 fold and the “Predicted Exposure Multiples Mouse AUC” value [3, 10] was roughly 47.5 fold. The “Predicted Exposure Multiples Mouse Cmax” value [3, 10] was roughly 50.9 fold, the hs-CRP reduction ([4]; MAD 140 mg) was “normalized to baseline” and the glucagon ([4]; MAD 280 mg, day 85 and day 127) was “greatest reduction in glucagon was observed at day 85 which normalized by day 127”. For the same substance, the fasting glucose ([4]; MAD 420 mg, safety follow up (day 127)) was “lower glucose levels were maintained”, the fasting glucose ([4]; MAD 140 and 280 mg, safety follow up (day 127)) was “returned to above baseline” and the fasting glucose ([4]; MAD 140 and 420 mg, day 29 and 85) was “decreased in a dose-responsive manner”. For the same substance, the hs-CRP reduction ([4]; MAD 280 and 420 mg) was “sustained until day 127”, the “hs-CRP change from baseline” value ([4]; MAD cohorts) was “dose-responsive decrease” and the HbA1c levels ([4]; MAD, all three dose groups, normal range at baseline) was “decreased in all three dose groups but trended towards baseline at day 127”. The “Predicted Exposure Multiples Monkey AUC” value [5, 8] was roughly 43.2 fold, the “Predicted Exposure Multiples Monkey AUC” value [5, 9] was 48.9 fold and the “Predicted Exposure Multiples Monkey AUC” value [5, 10] was roughly 45.5 fold. For the same substance, the “dose proportionality of pharmacokinetics” value ([6]; doses 21 mg to 840 mg) was “dose-proportional” and the “pharmacokinetics linearity based on Cmax” value ([6]; preliminary review, FIH SAD and MAD, AUC data pending) was “linear, dose proportional kinetics”.
